The values that follow are results of earlier work, collected in publication PMC10810742.

This series has as its target Ubiquitin (Homo sapiens) (UniProt P0CG47).

Chain of CteC (Q7NY09 whole entry): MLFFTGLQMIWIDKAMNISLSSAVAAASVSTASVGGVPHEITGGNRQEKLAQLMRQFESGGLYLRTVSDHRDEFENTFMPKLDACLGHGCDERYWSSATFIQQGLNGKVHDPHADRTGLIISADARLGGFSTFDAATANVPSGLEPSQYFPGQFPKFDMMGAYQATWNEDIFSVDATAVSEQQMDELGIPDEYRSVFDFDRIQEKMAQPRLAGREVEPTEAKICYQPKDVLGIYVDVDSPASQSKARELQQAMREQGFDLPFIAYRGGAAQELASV

Broadly, the Kd is the equilibrium constant for the complex coming apart. With CteC (from UniProt Q7NY09), the equilibrium dissociation constant (Kd) was 78.7 µM.
